Test results reported in US20260103541A1 (UNIVERSIT T Z RICH, published 2026).

What was measured:
[1] = molecular target: T1, mouse FAP on cells (mouse, UniProt P97321 1-761); assay: cell-based binding assay
T1 construct: also called murine FAP; mFAP
T1 sequence: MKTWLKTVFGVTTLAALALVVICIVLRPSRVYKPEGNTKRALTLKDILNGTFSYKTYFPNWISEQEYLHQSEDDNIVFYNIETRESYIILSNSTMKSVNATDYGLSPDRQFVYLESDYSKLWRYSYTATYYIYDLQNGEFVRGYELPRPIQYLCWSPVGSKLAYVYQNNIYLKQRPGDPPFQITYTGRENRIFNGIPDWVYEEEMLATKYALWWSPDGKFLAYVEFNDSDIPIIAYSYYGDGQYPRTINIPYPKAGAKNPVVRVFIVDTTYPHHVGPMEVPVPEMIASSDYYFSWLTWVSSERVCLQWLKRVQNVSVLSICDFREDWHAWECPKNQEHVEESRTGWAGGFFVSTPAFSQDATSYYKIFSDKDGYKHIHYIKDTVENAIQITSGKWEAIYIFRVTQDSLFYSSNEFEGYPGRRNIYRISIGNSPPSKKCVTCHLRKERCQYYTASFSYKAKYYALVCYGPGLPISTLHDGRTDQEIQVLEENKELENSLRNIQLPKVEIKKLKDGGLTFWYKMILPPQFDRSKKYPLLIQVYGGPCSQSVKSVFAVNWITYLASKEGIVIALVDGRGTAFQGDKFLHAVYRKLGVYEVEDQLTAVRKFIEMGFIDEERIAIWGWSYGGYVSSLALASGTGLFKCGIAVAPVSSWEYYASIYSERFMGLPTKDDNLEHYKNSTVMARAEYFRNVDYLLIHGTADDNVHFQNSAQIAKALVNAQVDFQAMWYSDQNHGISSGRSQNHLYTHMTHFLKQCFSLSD

[2] = molecular target: T2, recombinant mouse FAP (R&D Systems) (mouse, UniProt P97321 26-761); assay: ELISA, recombinant mouse FAP coated, 100 nM DARPin, anti-FLAG detection
T2 construct: also called Recombinant mFAP
T2 sequence: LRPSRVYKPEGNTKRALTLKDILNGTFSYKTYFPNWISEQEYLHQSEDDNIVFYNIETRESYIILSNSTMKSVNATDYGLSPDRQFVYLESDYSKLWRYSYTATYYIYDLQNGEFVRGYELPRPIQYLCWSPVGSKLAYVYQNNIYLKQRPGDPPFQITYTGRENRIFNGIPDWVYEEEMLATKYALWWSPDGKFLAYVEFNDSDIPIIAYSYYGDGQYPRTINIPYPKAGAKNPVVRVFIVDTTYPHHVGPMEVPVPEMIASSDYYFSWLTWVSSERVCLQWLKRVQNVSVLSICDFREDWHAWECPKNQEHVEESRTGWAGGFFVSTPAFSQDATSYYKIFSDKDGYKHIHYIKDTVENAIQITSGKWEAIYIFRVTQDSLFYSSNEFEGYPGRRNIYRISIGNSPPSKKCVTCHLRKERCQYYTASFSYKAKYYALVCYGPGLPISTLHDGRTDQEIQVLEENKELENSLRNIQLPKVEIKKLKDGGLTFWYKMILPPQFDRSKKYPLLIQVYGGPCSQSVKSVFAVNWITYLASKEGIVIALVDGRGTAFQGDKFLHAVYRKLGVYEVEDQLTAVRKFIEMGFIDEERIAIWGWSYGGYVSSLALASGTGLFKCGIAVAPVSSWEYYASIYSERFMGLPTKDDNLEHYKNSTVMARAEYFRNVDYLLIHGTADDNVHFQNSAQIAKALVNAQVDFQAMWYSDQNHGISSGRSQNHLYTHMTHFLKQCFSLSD
Protocol: Recombinant mFAP (R&D Systems), and recombinant maltose-binding protein (MBP; inhouse production) for a positive control, were used for a DARPin binding analysis via ELISA. Target protein was coated overnight (O/N) at 4° C. on MaxiSorp™ 96-well plates (Nunc). Blocking was performed for 2 h at RT using ELISA-blocking buffer (PBS containing 0.5% (w/v) BSA). Plates were washed with ELISA-PBS-T (PBS containing 0.05% (v/v) Tween 20). Samples were diluted (100 nM DARPin concentration) in ELISA-PBS-TB (ELISA PBS T containing 0.5% (w/v) BSA) and incubated for 1 h at 4° C. while shaking. DARPin detection was performed with rabbit anti-FLAG antibody (GenScript, A01868; 1:5,000) and goat anti-rabbit-AP antibody (Sigma Aldrich, A3687; 1:10,000), both diluted in ELISA-PBS-TB and incubated for 1 h at 4° C. while shaking. Substrate solution consisting of 3 mM p-nitrophenyl phosphate (pNPP) diluted in pNPP buffer (50 mM NaHCO₃, 50 mM MgCl₂) was used for final detection. A Tecan Infinite M1000 plate reader (Tecan) was used to measure the absorbance at 405 nm.

[3] = molecular target: T3, human FAP (fibroblast activation protein) on HT1080hFAP cells (human, UniProt Q12884 1-760); assay: flow cytometry cell-based binding assay, HT1080hFAP against FAP-negative HT1080 cells
T3 construct: also called seprase
T3 sequence: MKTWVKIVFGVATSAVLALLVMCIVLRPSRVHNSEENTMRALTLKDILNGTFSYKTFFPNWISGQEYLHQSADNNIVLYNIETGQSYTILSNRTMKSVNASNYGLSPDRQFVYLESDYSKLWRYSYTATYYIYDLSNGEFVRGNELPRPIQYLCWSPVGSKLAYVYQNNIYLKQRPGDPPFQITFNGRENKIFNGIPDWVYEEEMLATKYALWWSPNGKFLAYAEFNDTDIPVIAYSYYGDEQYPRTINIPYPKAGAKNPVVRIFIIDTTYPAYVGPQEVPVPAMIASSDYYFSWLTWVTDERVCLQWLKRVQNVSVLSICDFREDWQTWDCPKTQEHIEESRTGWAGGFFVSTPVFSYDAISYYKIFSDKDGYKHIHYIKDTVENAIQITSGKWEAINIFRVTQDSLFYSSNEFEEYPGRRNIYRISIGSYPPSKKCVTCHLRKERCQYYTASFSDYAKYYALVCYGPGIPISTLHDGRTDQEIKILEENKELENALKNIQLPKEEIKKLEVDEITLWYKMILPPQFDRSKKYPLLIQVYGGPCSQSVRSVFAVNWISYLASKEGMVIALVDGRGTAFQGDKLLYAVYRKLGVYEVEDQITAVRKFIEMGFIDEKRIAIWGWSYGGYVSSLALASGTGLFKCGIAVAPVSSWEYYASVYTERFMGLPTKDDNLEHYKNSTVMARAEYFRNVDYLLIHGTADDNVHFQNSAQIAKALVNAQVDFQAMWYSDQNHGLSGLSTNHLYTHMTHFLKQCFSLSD

Measured: binding result

B1: DARPin #6 (designed binder)
chain: DLGKKLLEAARAGQDDEVRILMANGADVNASDNWGRTPLHVAAQRGHLEIVDVLLAHGADDNASNRWGSTPLHVAAYTGHLEIVDVLLANGADVNASTANGETPLHAAAHAGHLEIVDVLLKHGADVNAQDKFGKTPFDLAIDNGNEDIAEVLQ
notes: also called designed ankyrin repeat domain #6; not shown: N terminal His6 tag; C terminal FLAG tag
binds: all assays above
